The chains are these.
T1: mature myostatin (human, murine, rat, chicken, turkey, …, UniProt O08689 268-376 (mouse entry))
T1 sequence: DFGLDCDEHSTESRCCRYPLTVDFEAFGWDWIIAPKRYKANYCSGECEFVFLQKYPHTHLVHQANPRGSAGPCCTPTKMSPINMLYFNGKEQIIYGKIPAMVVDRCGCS

B1: Mab C12 (antibody, V domains shown)
VH: QLQLQESGPGLVKPSETLSLTCTVSGFSLRKVGSSVSWIRQPPGKGLEWIGHIYWDDDKRLNPSLRNRVTISVDTSKNQFSLKLSSVTAADTAVYYCARRAITTVIGGGTFDLWGQGTLVTVSS
VL: DIQMTQSPSSLSASVGDRVTITCSASSSISYMHWYQQKPGKAPKLLIYDTSKLARGVPSRFSGSGSGTDFTLTISSLQPEDFATYYCQQWYLNPLTFGGGTKVEIKR
B2: C12 Fab with the Asn residue in CDRL3 replaced with tryptophan (Fab, V domains shown)
VH: QLQLQESGPGLVKPSETLSLTCTVSGFSLRKVGSSVSWIRQPPGKGLEWIGHIYWDDDKRLNPSLRNRVTISVDTSKNQFSLKLSSVTAADTAVYYCARRAITTVIGGGTFDLWGQGTLVTVSS
VL: DIQMTQSPSSLSASVGDRVTITCSASSSISYMHWYQQKPGKAPKLLIYDTSKLARGVPSRFSGSGSGTDFTLTISSLQPEDFATYYCQQWYLWPLTFGGGTKVEIKR
notes: Periprep Fab
B3: C12 Fab with the Asn residue in CDRL3 replaced with valine (Fab, V domains shown)
VH: QLQLQESGPGLVKPSETLSLTCTVSGFSLRKVGSSVSWIRQPPGKGLEWIGHIYWDDDKRLNPSLRNRVTISVDTSKNQFSLKLSSVTAADTAVYYCARRAITTVIGGGTFDLWGQGTLVTVSS
VL: DIQMTQSPSSLSASVGDRVTITCSASSSISYMHWYQQKPGKAPKLLIYDTSKLARGVPSRFSGSGSGTDFTLTISSLQPEDFATYYCQQWYLVPLTFGGGTKVEIKR
notes: Periprep Fab
B4: C12 Fab with the Asn residue in CDRL3 replaced with methionine (Fab, V domains shown)
VH: QLQLQESGPGLVKPSETLSLTCTVSGFSLRKVGSSVSWIRQPPGKGLEWIGHIYWDDDKRLNPSLRNRVTISVDTSKNQFSLKLSSVTAADTAVYYCARRAITTVIGGGTFDLWGQGTLVTVSS
VL: DIQMTQSPSSLSASVGDRVTITCSASSSISYMHWYQQKPGKAPKLLIYDTSKLARGVPSRFSGSGSGTDFTLTISSLQPEDFATYYCQQWYLMPLTFGGGTKVEIKR
notes: Periprep Fab
B5: C12 Fab with the Asn residue in CDRL3 replaced with phenylalanine (Fab, V domains shown)
VH: QLQLQESGPGLVKPSETLSLTCTVSGFSLRKVGSSVSWIRQPPGKGLEWIGHIYWDDDKRLNPSLRNRVTISVDTSKNQFSLKLSSVTAADTAVYYCARRAITTVIGGGTFDLWGQGTLVTVSS
VL: DIQMTQSPSSLSASVGDRVTITCSASSSISYMHWYQQKPGKAPKLLIYDTSKLARGVPSRFSGSGSGTDFTLTISSLQPEDFATYYCQQWYLFPLTFGGGTKVEIKR
notes: Periprep Fab
B6: C12 Fab with the Asn residue in CDRL3 replaced with cysteine (Fab, V domains shown)
VH: QLQLQESGPGLVKPSETLSLTCTVSGFSLRKVGSSVSWIRQPPGKGLEWIGHIYWDDDKRLNPSLRNRVTISVDTSKNQFSLKLSSVTAADTAVYYCARRAITTVIGGGTFDLWGQGTLVTVSS
VL: DIQMTQSPSSLSASVGDRVTITCSASSSISYMHWYQQKPGKAPKLLIYDTSKLARGVPSRFSGSGSGTDFTLTISSLQPEDFATYYCQQWYLCPLTFGGGTKVEIKR
notes: Periprep Fab
B7: C12 Fab with the Asn residue in CDRL3 replaced with glutamic acid (Fab, V domains shown)
VH: QLQLQESGPGLVKPSETLSLTCTVSGFSLRKVGSSVSWIRQPPGKGLEWIGHIYWDDDKRLNPSLRNRVTISVDTSKNQFSLKLSSVTAADTAVYYCARRAITTVIGGGTFDLWGQGTLVTVSS
VL: DIQMTQSPSSLSASVGDRVTITCSASSSISYMHWYQQKPGKAPKLLIYDTSKLARGVPSRFSGSGSGTDFTLTISSLQPEDFATYYCQQWYLEPLTFGGGTKVEIKR
notes: Periprep Fab
B8: C12 Fab with the Asn residue in CDRL3 replaced with tyrosine (Fab, V domains shown)
VH: QLQLQESGPGLVKPSETLSLTCTVSGFSLRKVGSSVSWIRQPPGKGLEWIGHIYWDDDKRLNPSLRNRVTISVDTSKNQFSLKLSSVTAADTAVYYCARRAITTVIGGGTFDLWGQGTLVTVSS
VL: DIQMTQSPSSLSASVGDRVTITCSASSSISYMHWYQQKPGKAPKLLIYDTSKLARGVPSRFSGSGSGTDFTLTISSLQPEDFATYYCQQWYLYPLTFGGGTKVEIKR
notes: Periprep Fab
B9: C12 Fab with the Asn residue in CDRL3 replaced with glutamine (Fab, V domains shown)
VH: QLQLQESGPGLVKPSETLSLTCTVSGFSLRKVGSSVSWIRQPPGKGLEWIGHIYWDDDKRLNPSLRNRVTISVDTSKNQFSLKLSSVTAADTAVYYCARRAITTVIGGGTFDLWGQGTLVTVSS
VL: DIQMTQSPSSLSASVGDRVTITCSASSSISYMHWYQQKPGKAPKLLIYDTSKLARGVPSRFSGSGSGTDFTLTISSLQPEDFATYYCQQWYLQPLTFGGGTKVEIKR
notes: Periprep Fab
B10: C12 Fab with the Asn residue in CDRL3 replaced with lysine (Fab, V domains shown)
VH: QLQLQESGPGLVKPSETLSLTCTVSGFSLRKVGSSVSWIRQPPGKGLEWIGHIYWDDDKRLNPSLRNRVTISVDTSKNQFSLKLSSVTAADTAVYYCARRAITTVIGGGTFDLWGQGTLVTVSS
VL: DIQMTQSPSSLSASVGDRVTITCSASSSISYMHWYQQKPGKAPKLLIYDTSKLARGVPSRFSGSGSGTDFTLTISSLQPEDFATYYCQQWYLKPLTFGGGTKVEIKR
notes: Periprep Fab
B11: C12 Fab with the Asn residue in CDRL3 replaced with alanine (Fab, V domains shown)
VH: QLQLQESGPGLVKPSETLSLTCTVSGFSLRKVGSSVSWIRQPPGKGLEWIGHIYWDDDKRLNPSLRNRVTISVDTSKNQFSLKLSSVTAADTAVYYCARRAITTVIGGGTFDLWGQGTLVTVSS
VL: DIQMTQSPSSLSASVGDRVTITCSASSSISYMHWYQQKPGKAPKLLIYDTSKLARGVPSRFSGSGSGTDFTLTISSLQPEDFATYYCQQWYLAPLTFGGGTKVEIKR
notes: Periprep Fab
B12: C12 Fab with the Asn residue in CDRL3 replaced with proline (Fab, V domains shown)
VH: QLQLQESGPGLVKPSETLSLTCTVSGFSLRKVGSSVSWIRQPPGKGLEWIGHIYWDDDKRLNPSLRNRVTISVDTSKNQFSLKLSSVTAADTAVYYCARRAITTVIGGGTFDLWGQGTLVTVSS
VL: DIQMTQSPSSLSASVGDRVTITCSASSSISYMHWYQQKPGKAPKLLIYDTSKLARGVPSRFSGSGSGTDFTLTISSLQPEDFATYYCQQWYLPPLTFGGGTKVEIKR
notes: Periprep Fab
B13: C12 Fab with the Asn residue in CDRL3 replaced with isoleucine (Fab, V domains shown)
VH: QLQLQESGPGLVKPSETLSLTCTVSGFSLRKVGSSVSWIRQPPGKGLEWIGHIYWDDDKRLNPSLRNRVTISVDTSKNQFSLKLSSVTAADTAVYYCARRAITTVIGGGTFDLWGQGTLVTVSS
VL: DIQMTQSPSSLSASVGDRVTITCSASSSISYMHWYQQKPGKAPKLLIYDTSKLARGVPSRFSGSGSGTDFTLTISSLQPEDFATYYCQQWYLIPLTFGGGTKVEIKR
notes: Periprep Fab
B14: C12 Fab with the Asn residue in CDRL3 replaced with leucine (Fab, V domains shown)
VH: QLQLQESGPGLVKPSETLSLTCTVSGFSLRKVGSSVSWIRQPPGKGLEWIGHIYWDDDKRLNPSLRNRVTISVDTSKNQFSLKLSSVTAADTAVYYCARRAITTVIGGGTFDLWGQGTLVTVSS
VL: DIQMTQSPSSLSASVGDRVTITCSASSSISYMHWYQQKPGKAPKLLIYDTSKLARGVPSRFSGSGSGTDFTLTISSLQPEDFATYYCQQWYLLPLTFGGGTKVEIKR
notes: Periprep Fab
B15: C12 Fab with the Asn residue in CDRL3 replaced with glycine (Fab, V domains shown)
VH: QLQLQESGPGLVKPSETLSLTCTVSGFSLRKVGSSVSWIRQPPGKGLEWIGHIYWDDDKRLNPSLRNRVTISVDTSKNQFSLKLSSVTAADTAVYYCARRAITTVIGGGTFDLWGQGTLVTVSS
VL: DIQMTQSPSSLSASVGDRVTITCSASSSISYMHWYQQKPGKAPKLLIYDTSKLARGVPSRFSGSGSGTDFTLTISSLQPEDFATYYCQQWYLGPLTFGGGTKVEIKR
notes: Periprep Fab
B16: C12 Fab with the Asn residue in CDRL3 replaced with aspartic acid (Fab, V domains shown)
VH: QLQLQESGPGLVKPSETLSLTCTVSGFSLRKVGSSVSWIRQPPGKGLEWIGHIYWDDDKRLNPSLRNRVTISVDTSKNQFSLKLSSVTAADTAVYYCARRAITTVIGGGTFDLWGQGTLVTVSS
VL: DIQMTQSPSSLSASVGDRVTITCSASSSISYMHWYQQKPGKAPKLLIYDTSKLARGVPSRFSGSGSGTDFTLTISSLQPEDFATYYCQQWYLDPLTFGGGTKVEIKR
notes: Periprep Fab
B17: C12 Fab with the Asn residue in CDRL3 replaced with threonine (Fab, V domains shown)
VH: QLQLQESGPGLVKPSETLSLTCTVSGFSLRKVGSSVSWIRQPPGKGLEWIGHIYWDDDKRLNPSLRNRVTISVDTSKNQFSLKLSSVTAADTAVYYCARRAITTVIGGGTFDLWGQGTLVTVSS
VL: DIQMTQSPSSLSASVGDRVTITCSASSSISYMHWYQQKPGKAPKLLIYDTSKLARGVPSRFSGSGSGTDFTLTISSLQPEDFATYYCQQWYLTPLTFGGGTKVEIKR
notes: Periprep Fab
B18: C12 Fab with the Asn residue in CDRL3 replaced with serine (Fab, V domains shown)
VH: QLQLQESGPGLVKPSETLSLTCTVSGFSLRKVGSSVSWIRQPPGKGLEWIGHIYWDDDKRLNPSLRNRVTISVDTSKNQFSLKLSSVTAADTAVYYCARRAITTVIGGGTFDLWGQGTLVTVSS
VL: DIQMTQSPSSLSASVGDRVTITCSASSSISYMHWYQQKPGKAPKLLIYDTSKLARGVPSRFSGSGSGTDFTLTISSLQPEDFATYYCQQWYLSPLTFGGGTKVEIKR
notes: Periprep Fab

The first assay addresses T1, mature myostatin. Nature of the assay: cell-based or functional assay.
Turning to B1, the “IC50 in the myostatin/SBE reporter assay (luciferase, HEK293 EBNA cells)” value was roughly 9.59 nM.

For a further assay, the target named is T1, mature myostatin. Briefly: ELISA, myostatin coated, periprep Fab titrated, anti-human-kappa-AP. On the procedure:
ELISA plates are coated with myostatin diluted to 4 ug/ml in carbonate buffer (50 mM NaHCO₃ pH 8.3) and 50 μL added per well. Plates are covered with sealing tape and incubate overnight at 4° C. Thereafter, plates (Greiner U-bottom plates Cat #650061) are washed three times with PBS-T (0.1% Tween-20) using an automatic plate washer. 200 μL of blocking buffer (PBS+1% BSA+0.1% Tween-20) is added to every well and incubated at room temperature for one hour. Plates are washed and 50 μl of sample added per well. Samples are composed of periprep Fabs diluted in PBST/BSA starting at a 1:3 dilution and then serially diluted in half-log steps. Plates are washed and 50 μL of secondary antibody solution (1:2000 goat anti-human-kappa-AP Southern Biotech Cat # 2060-04 in PBST/BSA) is added to every well. Following an additional wash step, 100 μL of AP substrate is added per well and incubates at room temperature for about 10 minutes. The absorbance or OD at 560 nm is read. C12 or 510C2 is included on each ELISA plate as an affinity reference standard. The concentration of Fabs is determined by a quantitative ELISA using an anti-Fd antibody (Sheep anti-Fd Biodesign) to capture protein and goat anti-human-kappa-AP (Southern Biotech) to detect. A purified Fab standard is run on each plate to generate a standard curve for the concentration determinations.
Consider B2, for which the binding result is listed as “binds”.
Same read-out and setting: the result for B3 reads “binds”; that for B4, “binds”.
Still for that read-out and setting: with B5 the entry was “binds”; with B6, “binds”; with B7, “binds”.
Still for that read-out and setting: the result for B8 reads “binds”.
On to B9, for which the binding result is “binds”.
The same measure, in the same setting: with B10 the entry was “binds”; with B11, “binds”; with B12, “binds”.
As for B13, the binding result is “binds”.
Same read-out and setting: with B14 the entry was “binds”; with B15, “binds”; with B16, “binds”.
Turning to B17, the binding result is given as “binds”.
On the same count and under the same terms, the result for B18 reads “binds”.

Values taken from US20100166764A1 (Eli Lilly, published 2010).
